Laboratory results published in US20230183354A1 (IMMIOS HOLDING B V, published 2023).
Values belong to the molecule of their own block, whether it stands above or below them.

Assays:
[1] = biological target: human CD103 (integrin Alpha-E) / human integrin Beta-7 heterodimer on cells (human) (UniProt P38570); test: flow cytometry, tumor digest OC433, AF647-conjugated control Fab, direct read-out
[2] = biological target: human CD103 (integrin Alpha-E) / human integrin Beta-7 heterodimer on cells (human) (UniProt P38570); test: flow cytometry, tumor digest OC433, non-labeled control Fab with secondary anti-Fab reagent (APC); secondary antibody alone Q2 4,65
[3] = biological target: human CD103 (integrin Alpha-E) / human integrin Beta-7 heterodimer on cells (human) (UniProt P38570); test: flow cytometry, tumor digest OC433, non-labeled control Fab with secondary anti-Fab reagent (APC); secondary antibody alone Q3 2,44
[4] = biological target: human CD103 (integrin Alpha-E) / human integrin Beta-7 heterodimer on cells (human) (UniProt P38570); test: flow cytometry competition on CD103+CD8+ T cells; pre-incubation with unlabeled 07A; table n=1
[5] = biological target: human CD103 (integrin Alpha-E) / human integrin Beta-7 heterodimer on cells (human) (UniProt P38570); test: flow cytometry competition on CD103+CD8+ T cells; pre-incubation with unlabeled IgG (f2); table n=2
[6] = biological target: human CD103 (integrin Alpha-E) / human integrin Beta-7 heterodimer on cells (human) (UniProt P38570); test: flow cytometry, tumor digest OC433, CD3 positive cells; Control panel Q2 0,53
[7] = biological target: human CD103 (integrin Alpha-E) / human integrin Beta-7 heterodimer on cells (human) (UniProt P38570); test: flow cytometry competition on CD103+CD8+ T cells; pre-incubation with unlabeled 03A; table n=1
[8] = biological target: human CD103 (integrin Alpha-E) / human integrin Beta-7 heterodimer on cells (human) (UniProt P38570); test: flow cytometry competition on CD103+CD8+ T cells; pre-incubation with unlabeled 05A; table n=1
[9] = biological target: human CD103 (integrin Alpha-E) / human integrin Beta-7 heterodimer on cells (human) (UniProt P38570); test: flow cytometry competition on CD103+CD8+ T cells; pre-incubation with unlabeled 02A; table n=2
[10] = biological target: human CD103 (integrin Alpha-E) / human integrin Beta-7 heterodimer on cells (human) (UniProt P38570); test: flow cytometry competition on CD103+CD8+ T cells; pre-incubation with unlabeled BERACT; table n=2
[11] = biological target: human CD103 (integrin Alpha-E) / human integrin Beta-7 heterodimer on cells (human) (UniProt P38570); test: flow cytometry competition on CD103+CD8+ T cells; pre-incubation with unlabeled MCA708 (f4); table n=2
[12] = biological target: human CD103 (integrin Alpha-E) / human integrin Beta-7 heterodimer on cells (human) (UniProt P38570); test: flow cytometry competition on CD103+CD8+ T cells; pre-incubation with unlabeled 01A; table n=2
[13] = biological target: human CD103 (integrin Alpha-E) / human integrin Beta-7 heterodimer on cells (human) (UniProt P38570); test: flow cytometry competition on CD103+CD8+ T cells; pre-incubation with unlabeled 02A; table n=1
[14] = biological target: human CD103 (integrin Alpha-E) / human integrin Beta-7 heterodimer on cells (human) (UniProt P38570); test: flow cytometry, tumor digest OC433, CD3 positive cells; Control panel Q3 2,12
[15] = biological target: human CD103 (integrin Alpha-E) / human integrin Beta-7 heterodimer on cells (human) (UniProt P38570); test: flow cytometry competition on CD103+CD8+ T cells; pre-incubation with unlabeled 06A; table n=2
[16] = biological target: human CD103 (integrin Alpha-E) / human integrin Beta-7 heterodimer on cells (human) (UniProt P38570); test: flow cytometry competition on CD103+CD8+ T cells; pre-incubation with unlabeled BERACT; table n=1
[17] = biological target: human CD103 (integrin Alpha-E) / human integrin Beta-7 heterodimer on cells (human) (UniProt P38570); test: flow cytometry competition on CD103+CD8+ T cells; pre-incubation with unlabeled 01A; table n=1
[18] = biological target: human CD103 (integrin Alpha-E) / human integrin Beta-7 heterodimer on cells (human) (UniProt P38570); test: flow cytometry competition on CD103+CD8+ T cells; pre-incubation with unlabeled 07A; table n=2
[19] = biological target: human CD103 (integrin Alpha-E) / human integrin Beta-7 heterodimer on cells (human) (UniProt P38570); test: flow cytometry competition on CD103+CD8+ T cells; pre-incubation with unlabeled 05A; table n=2
[20] = biological target: human CD103 (integrin Alpha-E) / human integrin Beta-7 heterodimer on cells (human) (UniProt P38570); test: flow cytometry competition on CD103+CD8+ T cells; pre-incubation with unlabeled IgG (f2); table n=1
[21] = biological target: human CD103 (integrin Alpha-E) / human integrin Beta-7 heterodimer on cells (human) (UniProt P38570); test: flow cytometry competition on CD103+CD8+ T cells; pre-incubation with unlabeled 06A; table n=1
[22] = biological target: human CD103 (integrin Alpha-E) / human integrin Beta-7 heterodimer on cells (human) (UniProt P38570); test: flow cytometry competition on CD103+CD8+ T cells; pre-incubation with unlabeled MCA708 (f4); table n=1
[23] = biological target: human CD103 (integrin Alpha-E) / human integrin Beta-7 heterodimer on cells (human) (UniProt P38570); test: flow cytometry competition on CD103+CD8+ T cells; pre-incubation with unlabeled 03A; table n=2
[24] = biological target: T1, human CD103 (integrin Alpha-E) / human integrin Beta-7 heterodimer on cells (human, UniProt P38570 19-1179; P26010 20-798); test: cell ELISA on CHO.K1-humanCD103/beta7 cells, abs 450-610
T1 construct: The same id is used for native CD103 on human CD103+CD8+ T cells (tumor digests, TGF-beta induced T cells); the assay field tells which cells; also called hCD103/hBeta7; CHO.K1-hCD103/hBeta7

[25] = biological target: T2, human integrin Alpha-4 / human integrin Beta-7 heterodimer on CHO-K1 cells (human, UniProt P13612 34-1032; P26010 20-798); test: cell ELISA on CHO.K1-humanAlpha4/beta7 cells, abs 450-610
T2 construct: Used as the control for reactivity with hBeta7; also called hAlpha4/hBeta7; CHO.K1-hAlpha4/hBeta7

murine CD103 = biological target: T3, murine CD103 (mouse, UniProt Q60677 20-1167); test: flow cytometry on mouse spleen and thymus cells
T3 construct: whole, on cells; also called murine CD103+ T cells; mouse CD103
T3 sequence (looked up): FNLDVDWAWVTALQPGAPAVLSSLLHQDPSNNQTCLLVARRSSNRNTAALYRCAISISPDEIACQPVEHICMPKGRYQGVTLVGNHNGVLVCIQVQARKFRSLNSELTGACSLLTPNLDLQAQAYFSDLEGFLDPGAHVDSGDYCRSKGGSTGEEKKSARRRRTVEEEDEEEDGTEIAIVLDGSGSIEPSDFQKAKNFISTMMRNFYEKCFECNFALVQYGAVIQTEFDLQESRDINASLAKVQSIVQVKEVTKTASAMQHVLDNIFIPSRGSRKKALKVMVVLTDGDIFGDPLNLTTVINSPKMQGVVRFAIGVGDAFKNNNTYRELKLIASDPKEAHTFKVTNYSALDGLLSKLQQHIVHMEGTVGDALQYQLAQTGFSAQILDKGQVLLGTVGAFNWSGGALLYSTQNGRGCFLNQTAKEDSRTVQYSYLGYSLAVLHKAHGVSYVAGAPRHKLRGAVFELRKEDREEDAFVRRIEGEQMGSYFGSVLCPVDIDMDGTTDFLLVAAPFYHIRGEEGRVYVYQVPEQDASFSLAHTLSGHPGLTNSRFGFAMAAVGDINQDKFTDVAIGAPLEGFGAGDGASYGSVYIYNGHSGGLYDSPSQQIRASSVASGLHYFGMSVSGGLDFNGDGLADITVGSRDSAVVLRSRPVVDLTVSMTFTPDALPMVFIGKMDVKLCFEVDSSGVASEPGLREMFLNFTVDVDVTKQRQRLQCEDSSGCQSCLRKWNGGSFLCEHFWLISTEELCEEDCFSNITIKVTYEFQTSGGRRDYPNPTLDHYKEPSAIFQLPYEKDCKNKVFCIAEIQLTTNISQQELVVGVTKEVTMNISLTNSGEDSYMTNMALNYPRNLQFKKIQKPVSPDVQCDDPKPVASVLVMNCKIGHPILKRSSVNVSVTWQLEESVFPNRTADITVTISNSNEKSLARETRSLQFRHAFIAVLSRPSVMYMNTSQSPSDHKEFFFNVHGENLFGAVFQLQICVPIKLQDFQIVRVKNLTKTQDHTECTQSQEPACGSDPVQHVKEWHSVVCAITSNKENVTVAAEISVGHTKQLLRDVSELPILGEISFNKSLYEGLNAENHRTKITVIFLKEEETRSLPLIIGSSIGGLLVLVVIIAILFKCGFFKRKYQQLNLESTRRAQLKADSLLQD
Experimental: Additional aliquots were stained with relevant isotype controls or as fluorescence minus one controls (“FMO” controls are cells stained with all the fluorophores minus one fluorophore; the relevant isotype controls contain either a directly labeled unspecific isotype antibody or an unspecific isotype antibody combined with secondary detection reagent). Percentage binding of fluorescently labeled mAbs was determined using flow cytometry. Maximum binding was set at 100%. […] Data analysis was performed with FlowJo v10 (Tree Star) and surface receptor levels were expressed as mean fluorescent intensity (MFI).

% of cells in Q2 (CD8+ CD103+) [1]: 2.58%
% of cells in Q3 (CD8- CD103+) [1]: 1.29%
Molecule: Alexa647.mFab control

% of cells in Q2 (CD8+ CD103+) [2]: 4.64%
% of cells in Q3 (CD8- CD103+) [3]: 3.71%
Molecule: hFab isotype

The next lines start with the molecule.

Molecule: CD103 (Ber-ACT8) antibody (BD)
% binding of the fluorescently labeled mAb (IgG pre-incubation = 100) [4]: 27.2%
% binding of the fluorescently labeled mAb (IgG pre-incubation = 100) [5]: 100%
% of CD3 positive cells in Q2 (CD8+ CD103+) [6]: 13.4%
% binding of the fluorescently labeled mAb (IgG pre-incubation = 100) [7]: 97%
% binding of the fluorescently labeled mAb (IgG pre-incubation = 100) [8]: 50.9%
% binding of the fluorescently labeled mAb (IgG pre-incubation = 100) [9]: 2.9%
% binding of the fluorescently labeled mAb (IgG pre-incubation = 100) [10]: 3.5%
% binding of the fluorescently labeled mAb (IgG pre-incubation = 100) [11]: 109%
% binding of the fluorescently labeled mAb (IgG pre-incubation = 100) [12]: 2.3%
% binding of the fluorescently labeled mAb (IgG pre-incubation = 100) [13]: 1.4%
% of CD3 positive cells in Q3 (CD8- CD103+) [14]: 7.75%
% binding of the fluorescently labeled mAb (IgG pre-incubation = 100) [15]: 103%
% binding of the fluorescently labeled mAb (IgG pre-incubation = 100) [16]: 1.9%
% binding of the fluorescently labeled mAb (IgG pre-incubation = 100) [17]: 0.9%
% binding of the fluorescently labeled mAb (IgG pre-incubation = 100) [18]: 29.2%
% binding of the fluorescently labeled mAb (IgG pre-incubation = 100) [19]: 60.6%
% binding of the fluorescently labeled mAb (IgG pre-incubation = 100) [20]: 100%
% binding of the fluorescently labeled mAb (IgG pre-incubation = 100) [21]: 96.6%
% binding of the fluorescently labeled mAb (IgG pre-incubation = 100) [22]: 115%
% binding of the fluorescently labeled mAb (IgG pre-incubation = 100) [23]: 101%

B1: hCD103.02A (antibody, V domains shown)
VH: EVQLQESGPSLVKPSQTLSLTCSVTGDSITSGYWNWIRKFPGNKLEYMGYITYSGSTYYNPSLKSRISITRDTSKNQYYLQFNSVTTEDTATYYCARGYYGSDAMDYWGQGTSVTVSS
VL: DIVMTQSHKFMSTSVGDRVSITCKASQDVSTAVAWYQQKPGQSPKLLIYSASYRYTGVPDRFTGSGSGTDFTFTISSVQAEDLAVYYCQQHYSPPWTFGGGTKLEIK
notes: also called clone 02A
EC50 (read off the curve) [24]: ~10 ng/mL
binding result [25]: no binding
binding result (murine CD103): no binding
